Test results reported in publication PMC5551684.
Read-outs that look alike come from different tables or passages of the source.

Assays:
[1] = target: T1, HSV-1 DNA polymerase catalytic subunit UL30 (exonuclease proficient) (Herpes simplex virus 1, UniProt P04293 1-1235); experiment: competition
[2] = target: T1, HSV-1 DNA polymerase catalytic subunit …; experiment: competition; remark: listed apart in the source

T1 sequence (P04293 whole entry): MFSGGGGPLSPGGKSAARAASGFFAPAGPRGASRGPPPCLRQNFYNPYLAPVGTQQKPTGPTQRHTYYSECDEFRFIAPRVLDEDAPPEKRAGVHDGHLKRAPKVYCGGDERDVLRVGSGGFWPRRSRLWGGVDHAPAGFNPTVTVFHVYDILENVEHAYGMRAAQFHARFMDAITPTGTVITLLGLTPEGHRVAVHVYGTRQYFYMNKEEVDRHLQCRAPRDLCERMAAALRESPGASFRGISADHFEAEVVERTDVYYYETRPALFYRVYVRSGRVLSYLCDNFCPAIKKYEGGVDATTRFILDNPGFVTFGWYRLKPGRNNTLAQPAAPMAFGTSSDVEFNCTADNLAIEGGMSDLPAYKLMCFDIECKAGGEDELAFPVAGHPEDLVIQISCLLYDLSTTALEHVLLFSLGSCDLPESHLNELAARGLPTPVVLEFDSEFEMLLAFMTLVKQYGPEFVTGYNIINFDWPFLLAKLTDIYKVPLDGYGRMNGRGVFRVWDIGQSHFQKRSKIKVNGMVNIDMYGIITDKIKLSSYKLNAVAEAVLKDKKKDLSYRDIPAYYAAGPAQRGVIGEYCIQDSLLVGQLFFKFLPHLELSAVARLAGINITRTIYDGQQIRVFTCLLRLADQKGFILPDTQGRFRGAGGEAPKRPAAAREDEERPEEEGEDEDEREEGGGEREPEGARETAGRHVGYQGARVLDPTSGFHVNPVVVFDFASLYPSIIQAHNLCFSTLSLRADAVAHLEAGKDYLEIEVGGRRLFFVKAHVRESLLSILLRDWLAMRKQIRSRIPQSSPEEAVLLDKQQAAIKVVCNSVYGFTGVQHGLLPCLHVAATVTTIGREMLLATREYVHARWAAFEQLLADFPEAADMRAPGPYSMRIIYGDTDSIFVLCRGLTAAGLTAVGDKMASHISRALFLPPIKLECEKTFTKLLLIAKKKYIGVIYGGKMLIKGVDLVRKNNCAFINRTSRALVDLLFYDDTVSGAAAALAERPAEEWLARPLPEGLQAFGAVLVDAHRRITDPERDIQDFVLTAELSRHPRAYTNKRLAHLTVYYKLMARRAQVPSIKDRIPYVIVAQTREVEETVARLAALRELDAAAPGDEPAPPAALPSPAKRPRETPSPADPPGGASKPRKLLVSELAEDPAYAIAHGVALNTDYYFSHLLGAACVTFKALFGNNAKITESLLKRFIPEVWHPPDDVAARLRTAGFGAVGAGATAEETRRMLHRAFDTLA

B1: DNA16ddss (ssDNA)
DNA: GCTCTGTTCCGGTTTG
modifications: 2',3'-dideoxyG at 3' end, position 16 (printed D*)
[1]
  binding result: binds

B2: DNA16ACVss (ssDNA)
DNA: GCTCTGTTCCGGTTTG
modifications: acyclovir monophosphate (acyclic G) at 3' end, position 16 (printed A*)
[1]
  binding result: binds

B3: DNA16ACV (dsDNA)
DNA 1: GCTCTGTTCCGGTTTG
DNA 2: CATGATTAGATGAAACACAAACCGGAACAGAGC
modifications: acyclovir monophosphate (acyclic G) at 3' end of primer, position 16 (printed A*)
[2]
  binding result: binds

B4: DNA16GCV (dsDNA)
DNA 1: GCTCTGTTCCGGTTTG
DNA 2: CATGATTAGATGAAACACAAACCGGAACAGAGC
modifications: ganciclovir monophosphate (acyclic G) at 3' end of primer, position 16 (printed G*)
[2]
  binding result: binds

B5: DNA16dd (dsDNA)
DNA 1: GCTCTGTTCCGGTTTG
DNA 2: CATGATTAGATGAAACACAAACCGGAACAGAGC
modifications: 2',3'-dideoxyG at 3' end of primer, position 16 (printed D*)
[2]
  binding result: binds
